# Results taken from article PMC10796322, “Molecular switching in transcription through splicing and proline-isomerization regulates stress responses in plants” (Nature Communications, 2024).
# T1: Med25-ACID_(532-680), activator interaction domain (ACID) of mediator complex subunit 25 (Arabidopsis thaliana, UniProt Q7XYY2 532-680)
# T1 construct: 15N- or 13C,15N-labelled in the NMR titrations; unlabelled in ITC, CEST and stopped-flow; also called AtMed25-ACID; ACID domain; source: E. coli BL21 DE3, purified (glutathione Sepharose, TEV cleavage, cation exchange, SEC); not shown: GST, N-terminal, cleaved
# T1 sequence (looked up): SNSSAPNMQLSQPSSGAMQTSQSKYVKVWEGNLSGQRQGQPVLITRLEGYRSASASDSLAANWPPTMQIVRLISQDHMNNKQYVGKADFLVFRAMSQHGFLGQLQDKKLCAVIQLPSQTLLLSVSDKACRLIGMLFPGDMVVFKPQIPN
# Target: T1, Med25-ACID_(532-680), activator …
# Test: ITC; 25 °C; 50 mM HEPES pH 7.4, 100 mM NaCl, 0.5 mM TCEP; ~1:10 cell to syringe concentration ratio, cell around 15 µM for high-affinity fragments; one-set-of-sites model; which protein was in the cell is not stated
# Conditions: both partners purified
Binder,Kd [nM],dH [kcal/mol],stoichiometry N
"DREB2A_(195-276) D241A (domain or fragment, Arabidopsis thaliana, UniProt O82132 195-276, looked up, source: E. coli BL21 DE3, purified (glutathione Sepharose, TEV cleavage, SEC); not shown: GST, N-terminal, cleaved) VKADKHWLSEFEHNYWSDILKEKEKQKEQGIVETCQQQQQDSLSVAAYGWPNDVDQSHLDSSDMFDVDELLRDLNGDDVFAG",2000 ± 700,-8.84 ± 1.67,1.07 ± 0.06
"DREB2A_(195-276) F259A (domain or fragment, Arabidopsis thaliana, UniProt O82132 195-276, looked up, source: E. coli BL21 DE3, purified (glutathione Sepharose, TEV cleavage, SEC); not shown: GST, N-terminal, cleaved) VKADKHWLSEFEHNYWSDILKEKEKQKEQGIVETCQQQQQDSLSVADYGWPNDVDQSHLDSSDMADVDELLRDLNGDDVFAG",550 ± 50,-14.1 ± 0.215,1.2 ± 0.1
"DREB2A_(195-276) V239A (domain or fragment, Arabidopsis thaliana, UniProt O82132 195-276, looked up, source: E. coli BL21 DE3, purified (glutathione Sepharose, TEV cleavage, SEC); not shown: GST, N-terminal, cleaved) VKADKHWLSEFEHNYWSDILKEKEKQKEQGIVETCQQQQQDSLSAADYGWPNDVDQSHLDSSDMFDVDELLRDLNGDDVFAG",2000 ± 200,-10 ± 0.239,0.95 ± 0.01
"DREB2A_(195-276) L237A (domain or fragment, Arabidopsis thaliana, UniProt O82132 195-276, looked up, source: E. coli BL21 DE3, purified (glutathione Sepharose, TEV cleavage, SEC); not shown: GST, N-terminal, cleaved) VKADKHWLSEFEHNYWSDILKEKEKQKEQGIVETCQQQQQDSASVADYGWPNDVDQSHLDSSDMFDVDELLRDLNGDDVFAG",2400 ± 300,-5.47 ± 0.167,1.03 ± 0.06
"DREB2A_(195-276) W244A (domain or fragment, Arabidopsis thaliana, UniProt O82132 195-276, looked up, source: E. coli BL21 DE3, purified (glutathione Sepharose, TEV cleavage, SEC); not shown: GST, N-terminal, cleaved) VKADKHWLSEFEHNYWSDILKEKEKQKEQGIVETCQQQQQDSLSVADYGAPNDVDQSHLDSSDMFDVDELLRDLNGDDVFAG",1900 ± 200,-11.2 ± 0.239,1 ± 0.1
"DREB2A_(195-276) F274A (domain or fragment, Arabidopsis thaliana, UniProt O82132 195-276, looked up, source: E. coli BL21 DE3, purified (glutathione Sepharose, TEV cleavage, SEC); not shown: GST, N-terminal, cleaved) VKADKHWLSEFEHNYWSDILKEKEKQKEQGIVETCQQQQQDSLSVADYGWPNDVDQSHLDSSDMFDVDELLRDLNGDDVAAG",660 ± 90,-14.8 ± 0.478,0.86 ± 0.02
"DREB2A_(195-276) E263P (domain or fragment, Arabidopsis thaliana, UniProt O82132 195-276, looked up, also called helix-disrupting DREB2A E263P variant; source: E. coli BL21 DE3, purified (glutathione Sepharose, TEV cleavage, SEC); not shown: GST, N-terminal, cleaved) VKADKHWLSEFEHNYWSDILKEKEKQKEQGIVETCQQQQQDSLSVADYGWPNDVDQSHLDSSDMFDVDPLLRDLNGDDVFAG",580 ± 40,-14.6 ± 0.191,1 ± 0.06
"QDSLSVADYGWPNDVDQSHLDSSDMFDVDELLRDLNGDD (domain or fragment, Arabidopsis thaliana, UniProt O82132 234-272, looked up, DREB2A, Arabidopsis thaliana, AT5G05410, residues 234-272; source: E. coli BL21 DE3, purified (glutathione Sepharose, TEV cleavage, SEC); not shown: GST, N-terminal, cleaved) [DREB2A_(234-272)]",1800,-10.3,0.97
"DREB2A_(151-335) (domain or fragment, Arabidopsis thaliana, UniProt O82132 151-335, looked up, also called C-terminal intrinsically disordered region (IDR) of DREB2A; source: E. coli BL21 DE3, purified (glutathione Sepharose, TEV cleavage, SEC); not shown: GST, N-terminal, cleaved) VCTVETPGCVHVKTEDPDCESKPFSGGVEPMYCLENGAEEMKRGVKADKHWLSEFEHNYWSDILKEKEKQKEQGIVETCQQQQQDSLSVADYGWPNDVDQSHLDSSDMFDVDELLRDLNGDDVFAGLNQDRYPGNSVANGSYRPESQQSGFDPLQSLNYGIPPFQLEGKDGNGFFDDLSYLDLEN",–,-12.5,1.1
"QDSLSVADYGWANDVDQSHLDSSDMFDVDELLRDLNGDDVFAG (domain or fragment, Arabidopsis thaliana, UniProt O82132 234-276, looked up, Isotope-labelled in the CEST experiments; also called ABS-RIM_(P245A); DREB2A_(P245A); source: E. coli BL21 DE3, purified (glutathione Sepharose, TEV cleavage, SEC); not shown: GST, N-terminal, cleaved) [DREB2A_(234-276,P245A)]",780 ± 60,-10.4 ± 0.191,1.26 ± 0.01
"DREB2A_(234-335) (domain or fragment, Arabidopsis thaliana, UniProt O82132 234-335, looked up, DREB2A, Arabidopsis thaliana, AT5G05410, residues 234-335; source: E. coli BL21 DE3, purified (glutathione Sepharose, TEV cleavage, SEC); not shown: GST, N-terminal, cleaved) QDSLSVADYGWPNDVDQSHLDSSDMFDVDELLRDLNGDDVFAGLNQDRYPGNSVANGSYRPESQQSGFDPLQSLNYGIPPFQLEGKDGNGFFDDLSYLDLEN",440,-13.9,1
"DREB2A_(195-335,Δ244-276) (domain or fragment, Arabidopsis thaliana, UniProt O82132 195-335, looked up, also called splice variant fragment; source: E. coli BL21 DE3, purified (glutathione Sepharose, TEV cleavage, SEC); not shown: GST, N-terminal, cleaved) VKADKHWLSEFEHNYWSDILKEKEKQKEQGIVETCQQQQQDSLSVADYGLNQDRYPGNSVANGSYRPESQQSGFDPLQSLNYGIPPFQLEGKDGNGFFDDLSYLDLEN",5400,-14.1,1.02
"QDSLSVADYGWPNDVDQSHLDSS (domain or fragment, Arabidopsis thaliana, UniProt O82132 234-256, looked up, also called monovalent ABS fragment; source: E. coli BL21 DE3, purified (glutathione Sepharose, TEV cleavage, SEC); not shown: GST, N-terminal, cleaved) [DREB2A_(234-256) (ABS)]",6000,-12.9,0.86
